According to article PMC2363969, “gp100/pmel17 and tyrosinase encode multiple epitopes recognized by Th1-type CD4+T cells” (British Journal of Cancer, 2001):

What was measured:
[1] = target: HLA-DRB1*0404 (human); experiment: radioligand binding
[2] = target: HLA-DRB1*0401 (human); experiment: radioligand binding

IC50 [1]: 31 nM | IC50 [2]: 17 nM
Substance: tyrosinase 365-381D (peptide)
